For the assay, the target named is EVA-4 (UniProt P0C8E9). Nature of the assay: SPR.
Chain of EVA-4 (P0C8E9 24-127): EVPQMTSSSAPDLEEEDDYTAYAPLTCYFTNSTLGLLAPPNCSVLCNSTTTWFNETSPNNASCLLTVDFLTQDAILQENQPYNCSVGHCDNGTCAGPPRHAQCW

Chain of CCL13, Q99616 17-98 (ligand; biotin on the Avi-tag (Bir-A ligase); other documents disagree on this pair) (Q99616 17-98): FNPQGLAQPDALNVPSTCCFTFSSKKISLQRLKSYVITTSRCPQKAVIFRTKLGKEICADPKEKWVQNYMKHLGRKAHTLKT

The term Kd denotes the equilibrium constant for the complex coming apart. Low values mean tighter binding, high ones weaker binding. “CCL13, Q99616 17-98 (ligand; biotin on the Avi-tag (Bir-A ligase); other documents disagree on this pair)” displayed a dissociation constant (Kd) of 253 nM.

The values above are taken from paper PMC9478924.
